Data on one substance can be found in paper PMC11507749.

For the assay, the target named is iLID-YFP-SNAP (2×Strep-iLID-EYFP-SNAP). The assay can be described thus: light-induced membrane recruitment in GUVs.

Take mCherry-SspB(micro): the half-time of dissociation from the membrane in the dark turned out to be 61.2 s and the half-time of dissociation in the dark was 41.8 s.
